According to IntAct's records for PubMed 31515488:

B1: Poliovirus receptor (Homo sapiens), P15151 (parent)
chain: MARAMAAAWPLLLVALLVLSWPPPGTGDVVVQAPTQVPGFLGDSVTLPCYLQVPNMEVTHVSQLTWARHGESGSMAVFHQTQGPSYSESKRLEFVAARLGAELRNASLRMFGLRVEDEGNYTCLFVTFPQGSRSVDIWLRVLAKPQNTAEVQKVQLTGEPVPMARCVSTGGRPPAQITWHSDLGGMPNTSQVPGFLSGTVTVTSLWILVPSSQVDGKNVTCKVEHESFEKPQLLTVNLTVYYPPEVSISGYDNNWYLGQNEATLTCDARSNPEPTGYNWSTTMGPLPPFAVAQGAQLLIRPVDKPINTTLICNVTNALGARQAELTVQVKEGPPSEHSGISRNAIIFLVLGILVFLILLGIGIYFYWSKCSREVLWHCHLCPSSTEHASASANGHVSYSAVSRENSSSQDPQTEGTR
partner: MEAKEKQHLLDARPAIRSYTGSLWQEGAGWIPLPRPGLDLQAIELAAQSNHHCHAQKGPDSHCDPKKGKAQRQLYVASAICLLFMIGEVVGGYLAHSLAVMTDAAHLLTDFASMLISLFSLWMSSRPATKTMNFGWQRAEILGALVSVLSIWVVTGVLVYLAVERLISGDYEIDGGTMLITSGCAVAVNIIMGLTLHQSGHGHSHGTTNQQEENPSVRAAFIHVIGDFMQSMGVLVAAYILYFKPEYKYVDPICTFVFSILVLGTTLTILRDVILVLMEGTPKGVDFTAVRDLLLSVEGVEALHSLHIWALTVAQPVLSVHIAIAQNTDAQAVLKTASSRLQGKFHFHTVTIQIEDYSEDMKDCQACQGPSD
B2: Microtubule-associated tumor suppressor candidate 2 (Homo sapiens), Q5JR59-3 (parent)
chain: MGHCCCKPYNCLQCLDKTNESALVKEKELSIELANIRDEVAFHTAKCEKLQKEKEELERRFEDEVKRLGWQQQAELQELEERLQLQFEAEMARLQEEHGDQLLSIRCQHQEQVEDLTASHDAALLEMENNHTVAITILQDDHDHKVQELMSTHELEKKELEENFEKLRLSLQDQVDTLTFQSQSLRDRARRFEEALRKNTEEQLEIALAPYQHLEEDMKSLKQVLEMKNQQIHEQEKKILELEKLAEKNIILEEKIQVLQQQNEDLKARIDQNTVVTRQLSEENANLQEYVEKETQEKKRLSRTNEELLWKLQTGDPTSPIKLSPTSPVYRGSSSGPSSPARVSTTPR
partner: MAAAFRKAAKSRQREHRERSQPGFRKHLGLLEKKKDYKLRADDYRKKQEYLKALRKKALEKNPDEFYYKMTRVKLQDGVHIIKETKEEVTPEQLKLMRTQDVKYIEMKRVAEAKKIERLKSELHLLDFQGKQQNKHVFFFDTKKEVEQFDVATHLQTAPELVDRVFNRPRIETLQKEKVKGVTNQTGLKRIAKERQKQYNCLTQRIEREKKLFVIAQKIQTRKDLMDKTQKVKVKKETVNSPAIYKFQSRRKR
B3: Protein DBF4 homolog B (Homo sapiens), Q8NFT6 (parent)
chain: MSEPGKGDDCLELESSMAESRLRAPDLGVSRCLGKCQKNSPGARKHPFSGKSFYLDLPAGKNLQFLTGAIQQLGGVIEGFLSKEVSYIVSSRREVKAESSGKSHRGCPSPSPSEVRVETSAMVDPKGSHPRPSRKPVDSVPLSRGKELLQKAIRNQGSISGGGSGGSSSLLTNARSWGVRILHVDEMMMHVQQLSLASLCVKKQQPKKPEGTCPAAESRTRKVARLKAPFLKIEDESRKFRPFHHQFKSFPEISFLGPKDASPFEAPTTLGSMHHTRESKDGEPSPRSAAHTMPRRKKGYCECCQEAFEELHVHLQSAQHRSFALEAHLYAEVDRIIAQLSHSFADIPFQAGLPRWSGSPASDCDPLCPETLHPHQPSHPRAASPRIRKEDSCQASVTQGRAAGQQRWTESLDGVMGPPASHTCVSATTLLPALPKGSREQGCLCPCPASFTQSHLVTSLALLPGEWSPAEDMPLHPSQENSFAPADIPVKGPLLFPEARPWLMSARCWVRPFPFVTWGCLIPHDTTPLHEEVSPCPCLRLGYLYLLLTQSLWCRVRVPSLSTAGPIPRTSHPCTLAFPSYLNDHDLGHLCQAKPQGWNTPQPFLHCGFLAVDSG
partner: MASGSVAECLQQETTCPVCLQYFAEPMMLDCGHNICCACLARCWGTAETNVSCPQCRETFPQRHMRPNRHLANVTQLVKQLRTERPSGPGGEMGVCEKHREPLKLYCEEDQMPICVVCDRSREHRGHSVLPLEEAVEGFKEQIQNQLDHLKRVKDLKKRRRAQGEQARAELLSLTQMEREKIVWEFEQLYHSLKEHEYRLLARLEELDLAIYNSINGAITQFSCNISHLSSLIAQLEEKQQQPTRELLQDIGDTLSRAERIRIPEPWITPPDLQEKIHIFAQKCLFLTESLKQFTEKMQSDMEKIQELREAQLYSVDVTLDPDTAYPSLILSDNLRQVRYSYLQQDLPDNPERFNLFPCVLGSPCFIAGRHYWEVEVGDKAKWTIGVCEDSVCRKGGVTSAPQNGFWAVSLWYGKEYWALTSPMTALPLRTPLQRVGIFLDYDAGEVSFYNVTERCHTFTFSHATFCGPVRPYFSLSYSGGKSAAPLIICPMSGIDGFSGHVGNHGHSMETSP
B4: PDZ and LIM domain protein 5 (Homo sapiens), Q96HC4 (parent)
chain: MSNYSVSLVGPAPWGFRLQGGKDFNMPLTISSLKDGGKAAQANVRIGDVVLSIDGINAQGMTHLEAQNKIKGCTGSLNMTLQRASAAPKPEPVPVQKGEPKEVVKPVPITSPAVSKVTSTNNMAYNKAPRPFGSVSSPKVTSIPSPSSAFTPAHATTSSHASPSPVAAVTPPLFAASGLHANANLSADQSPSALSAGKTAVNVPRQPTVTSVCSETSQELAEGQRRGSQGDSKQQNGPPRKHIVERYTEFYHVPTHSDASKKRLIEDTEDWRPRTGTTQSRSFRILAQITGTEHLKESEADNTKKANNSQEPSPQLASSVASTRSMPESLDSPTSGRPGVTSLTAAAAFKPVGSTGVIKSPSWQRPNQGVPSTGRISNSATYSGSVAPANSALGQTQPSDQDTLVQRAEHIPAGKRTPMCAHCNQVIRGPFLVALGKSWHPEEFNCAHCKNTMAYIGFVEEKGALYCELCYEKFFAPECGRCQRKILGEVISALKQTWHVSCFVCVACGKPIRNNVFHLEDGEPYCETDYYALFGTICHGCEFPIEAGDMFLEALGYTWHDTCFVCSVCCESLEGQTFFSKKDKPLCKKHAHSVNF
B5: UPF0193 protein EVG1 (Homo sapiens), Q9BZE7 (parent)
chain: MASQKQMEVVTKGTGFRRRPKTITYTPGTCELLRVMMKESKLTNIQQRHIMDIMKRGDALPLQCSPTSSQRVLPSKQIASPIYLPPILAARPHLRPANMCQANGAYSREQFKPQATRDLEKEKQRLQNIFATGKDMEERKRKAPPARQKAPAPELDRFEELVKEIQERKEFLADMEALGQGKQYRGIILAEISQKLREMEDIDHRRSEELRKGLATT

Variants of: B1
Details: with znt2_human SLC30A2, Q9BRI3

| Variant | effect of a mutation on the interaction |
| --- | --- |
| MARAMAAAWPLLLVALLVLSWPPPGTGDVVVQAPTQVPGFLGDSVTLPCYLQVPNMEVTHVSQLTWTRHGESGSMAVFHQTQGPSYSESKRLEFVAARLGAELRNASLRMFGLRVEDEGNYTCLFVTFPQGSRSVDIWLRVLAKPQNTAEVQKVQLTGEPVPMARCVSTGGRPPAQITWHSDLGGMPNTSQVPGFLSGTVTVTSLWILVPSSQVDGKNVTCKVEHESFEKPQLLTVNLTVYYPPEVSISGYDNNWYLGQNEATLTCDARSNPEPTGYNWSTTMGPLPPFAVAQGAQLLIRPVDKPINTTLICNVTNALGARQAELTVQVKEGPPSEHSGISRNAIIFLVLGILVFLILLGIGIYFYWSKCSREVLWHCHLCPSSTEHASASANGHVSYSAVSRENSSSQDPQTEGTR [A67T] | with no effect |

Variants of: B2
Details: with utp11_human UTP11, Q9Y3A2

| Variant | effect of a mutation on the interaction |
| --- | --- |
| MGHCCCKPYNCLQCLDKTNESALVKEKELSIELANIRDEVAFHTAKCEKLQKEKEELERRFEDEVKRLGWQQQAELQELEERLQLQFEVEMARLQEEHGDQLLSIRCQHQEQVEDLTASHDAALLEMENNHTVAITILQDDHDHKVQELMSTHELEKKELEENFEKLRLSLQDQVDTLTFQSQSLRDRARRFEEALRKNTEEQLEIALAPYQHLEEDMKSLKQVLEMKNQQIHEQEKKILELEKLAEKNIILEEKIQVLQQQNEDLKARIDQNTVVTRQLSEENANLQEYVEKETQEKKRLSRTNEELLWKLQTGDPTSPIKLSPTSPVYRGSSSGPSSPARVSTTPR [A89V] | with no effect |

Variants of: B3
Details: with tri27_human TRIM27, P14373

| Variant | effect of a mutation on the interaction |
| --- | --- |
| L199S | with no effect |

Variants of: B4
Details: with cc136_human CCDC136, Q96JN2
cc136_human CCDC136, Q96JN2, sequence (Q96JN2 whole entry): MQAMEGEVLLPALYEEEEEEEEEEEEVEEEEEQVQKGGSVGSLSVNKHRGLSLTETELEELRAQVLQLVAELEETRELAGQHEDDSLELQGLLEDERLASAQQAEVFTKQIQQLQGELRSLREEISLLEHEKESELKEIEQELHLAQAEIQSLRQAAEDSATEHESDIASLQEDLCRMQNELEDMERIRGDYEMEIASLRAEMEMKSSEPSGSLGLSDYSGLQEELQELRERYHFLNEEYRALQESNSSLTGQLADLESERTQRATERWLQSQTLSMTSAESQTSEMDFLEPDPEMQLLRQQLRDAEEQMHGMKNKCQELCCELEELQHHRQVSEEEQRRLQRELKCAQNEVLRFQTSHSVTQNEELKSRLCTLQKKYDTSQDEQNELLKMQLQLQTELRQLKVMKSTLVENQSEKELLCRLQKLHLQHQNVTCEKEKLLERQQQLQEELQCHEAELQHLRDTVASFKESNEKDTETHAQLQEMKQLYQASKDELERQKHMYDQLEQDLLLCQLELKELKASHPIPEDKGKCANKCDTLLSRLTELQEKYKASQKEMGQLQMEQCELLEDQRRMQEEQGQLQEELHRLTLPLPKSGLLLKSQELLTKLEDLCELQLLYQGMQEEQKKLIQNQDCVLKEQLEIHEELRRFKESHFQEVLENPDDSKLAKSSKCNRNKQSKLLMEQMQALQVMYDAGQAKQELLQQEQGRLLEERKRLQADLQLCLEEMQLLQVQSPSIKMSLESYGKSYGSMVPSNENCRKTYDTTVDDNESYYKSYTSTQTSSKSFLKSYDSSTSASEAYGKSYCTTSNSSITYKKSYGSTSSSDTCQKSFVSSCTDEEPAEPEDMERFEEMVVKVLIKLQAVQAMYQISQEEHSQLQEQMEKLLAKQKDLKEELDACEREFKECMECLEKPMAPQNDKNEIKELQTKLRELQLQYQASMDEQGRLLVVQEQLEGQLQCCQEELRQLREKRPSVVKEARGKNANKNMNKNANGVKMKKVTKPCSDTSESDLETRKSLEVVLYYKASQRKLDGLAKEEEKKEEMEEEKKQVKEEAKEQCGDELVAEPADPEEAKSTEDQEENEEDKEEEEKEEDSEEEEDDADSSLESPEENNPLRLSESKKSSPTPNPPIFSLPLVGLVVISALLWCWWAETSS

| Variant | effect of a mutation on the interaction |
| --- | --- |
| MSNYSVSLVGPAPWGFRLQGGKDFNMPLTISSLKDGGKAAQANVRIGDVVLSIDGINAQGMTHLEAQNKIKGCTGSLNMTLQRASAAPKPEPVPVQKGEPKEVVKPVPITSPAVSKVTSTNNMAYNKAPRPFGSVFSPKVTSIPSPSSAFTPAHATTSSHASPSPVAAVTPPLFAASGLHANANLSADQSPSALSAGKTAVNVPRQPTVTSVCSETSQELAEGQRRGSQGDSKQQNGPPRKHIVERYTEFYHVPTHSDASKKRLIEDTEDWRPRTGTTQSRSFRILAQITGTEHLKESEADNTKKANNSQEPSPQLASSVASTRSMPESLDSPTSGRPGVTSLTAAAAFKPVGSTGVIKSPSWQRPNQGVPSTGRISNSATYSGSVAPANSALGQTQPSDQDTLVQRAEHIPAGKRTPMCAHCNQVIRGPFLVALGKSWHPEEFNCAHCKNTMAYIGFVEEKGALYCELCYEKFFAPECGRCQRKILGEVISALKQTWHVSCFVCVACGKPIRNNVFHLEDGEPYCETDYYALFGTICHGCEFPIEAGDMFLEALGYTWHDTCFVCSVCCESLEGQTFFSKKDKPLCKKHAHSVNF [S136F] | with no effect |

Variants of: B5
Details: with ccdb1_human CCNDBP1, O95273
ccdb1_human CCNDBP1, O95273, sequence (O95273 whole entry): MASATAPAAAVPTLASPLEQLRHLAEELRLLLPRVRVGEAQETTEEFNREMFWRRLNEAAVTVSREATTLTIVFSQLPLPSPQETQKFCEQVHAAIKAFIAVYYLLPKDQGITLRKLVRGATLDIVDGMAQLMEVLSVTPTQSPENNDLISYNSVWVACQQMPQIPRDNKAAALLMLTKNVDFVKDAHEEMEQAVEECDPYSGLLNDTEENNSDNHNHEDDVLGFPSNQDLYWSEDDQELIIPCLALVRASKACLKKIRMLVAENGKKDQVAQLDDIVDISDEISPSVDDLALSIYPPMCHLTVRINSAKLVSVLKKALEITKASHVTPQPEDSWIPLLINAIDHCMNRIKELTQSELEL

| Variant | effect of a mutation on the interaction |
| --- | --- |
| M136L | with no effect |
